# Reference: patent publication US20240261333A1, “NOVEL TARGETS FOR ENHANCING ANTI-TUMOR IMMUNITY” (THE BROAD INSTITUTE, INC., priority 2021, published 2024)
# What was measured:
# [1] = target: RPL10 (human) (UniProt P27635); test: co-IP, anti-FLAG, lysate of cells with C-FLAG B3GNT2; mass spectrometry
# [2] = target: RPL4 (human) (UniProt P36578); test: as above
# [3] = target: RPS28 (human) (UniProt P62857); test: as above
# [4] = target: CSE1L (human) (UniProt P55060); test: as above
# [5] = target: SPTAN1 (human) (UniProt Q13813); test: as above
# [6] = target: RPL18 (human) (UniProt Q07020); test: as above
# [7] = target: HSPA8 (human) (UniProt P11142); test: as above
# Sequence of HSPA8 (human) (P11142 2-646 limits assumed): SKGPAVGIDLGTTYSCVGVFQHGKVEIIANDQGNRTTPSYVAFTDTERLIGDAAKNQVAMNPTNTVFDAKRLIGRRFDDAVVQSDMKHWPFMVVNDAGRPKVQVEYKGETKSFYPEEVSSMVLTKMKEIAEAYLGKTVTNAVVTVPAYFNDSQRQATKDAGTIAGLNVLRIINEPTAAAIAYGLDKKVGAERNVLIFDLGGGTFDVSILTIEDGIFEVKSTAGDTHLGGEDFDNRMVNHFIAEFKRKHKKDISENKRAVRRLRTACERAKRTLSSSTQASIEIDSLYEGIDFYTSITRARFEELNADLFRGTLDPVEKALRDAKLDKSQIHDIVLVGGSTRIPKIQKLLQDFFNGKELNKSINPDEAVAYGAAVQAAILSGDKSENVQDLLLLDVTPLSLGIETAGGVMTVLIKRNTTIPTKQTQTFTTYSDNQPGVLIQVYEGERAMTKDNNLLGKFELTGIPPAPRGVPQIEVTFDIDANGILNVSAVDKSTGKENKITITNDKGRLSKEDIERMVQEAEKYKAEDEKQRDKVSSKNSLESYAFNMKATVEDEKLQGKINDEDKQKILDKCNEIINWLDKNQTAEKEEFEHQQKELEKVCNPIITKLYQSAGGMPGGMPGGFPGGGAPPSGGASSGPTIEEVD
# [8] = target: KRT4 (human) (UniProt P19013); test: as above
# Sequence of KRT4 (human) (P19013 whole entry): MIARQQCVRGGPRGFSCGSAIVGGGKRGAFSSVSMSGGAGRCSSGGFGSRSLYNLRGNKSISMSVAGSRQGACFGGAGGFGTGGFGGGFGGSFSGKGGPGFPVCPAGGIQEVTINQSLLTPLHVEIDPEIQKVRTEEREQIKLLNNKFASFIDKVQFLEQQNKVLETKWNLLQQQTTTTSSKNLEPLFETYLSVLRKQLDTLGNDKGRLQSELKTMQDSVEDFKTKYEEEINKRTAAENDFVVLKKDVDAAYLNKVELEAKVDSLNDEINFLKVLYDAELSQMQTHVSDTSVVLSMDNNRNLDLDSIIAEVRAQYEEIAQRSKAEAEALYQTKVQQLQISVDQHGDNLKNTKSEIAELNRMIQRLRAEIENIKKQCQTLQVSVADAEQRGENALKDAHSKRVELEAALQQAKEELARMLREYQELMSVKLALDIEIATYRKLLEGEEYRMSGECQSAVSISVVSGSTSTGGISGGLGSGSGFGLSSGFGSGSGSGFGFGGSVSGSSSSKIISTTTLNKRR
# [9] = target: ARPC4 (human) (UniProt P59998); test: as above
# [10] = target: PARP1 (human) (UniProt P09874); test: as above
# Sequence of PARP1 (human) (P09874 2-1014 limits assumed): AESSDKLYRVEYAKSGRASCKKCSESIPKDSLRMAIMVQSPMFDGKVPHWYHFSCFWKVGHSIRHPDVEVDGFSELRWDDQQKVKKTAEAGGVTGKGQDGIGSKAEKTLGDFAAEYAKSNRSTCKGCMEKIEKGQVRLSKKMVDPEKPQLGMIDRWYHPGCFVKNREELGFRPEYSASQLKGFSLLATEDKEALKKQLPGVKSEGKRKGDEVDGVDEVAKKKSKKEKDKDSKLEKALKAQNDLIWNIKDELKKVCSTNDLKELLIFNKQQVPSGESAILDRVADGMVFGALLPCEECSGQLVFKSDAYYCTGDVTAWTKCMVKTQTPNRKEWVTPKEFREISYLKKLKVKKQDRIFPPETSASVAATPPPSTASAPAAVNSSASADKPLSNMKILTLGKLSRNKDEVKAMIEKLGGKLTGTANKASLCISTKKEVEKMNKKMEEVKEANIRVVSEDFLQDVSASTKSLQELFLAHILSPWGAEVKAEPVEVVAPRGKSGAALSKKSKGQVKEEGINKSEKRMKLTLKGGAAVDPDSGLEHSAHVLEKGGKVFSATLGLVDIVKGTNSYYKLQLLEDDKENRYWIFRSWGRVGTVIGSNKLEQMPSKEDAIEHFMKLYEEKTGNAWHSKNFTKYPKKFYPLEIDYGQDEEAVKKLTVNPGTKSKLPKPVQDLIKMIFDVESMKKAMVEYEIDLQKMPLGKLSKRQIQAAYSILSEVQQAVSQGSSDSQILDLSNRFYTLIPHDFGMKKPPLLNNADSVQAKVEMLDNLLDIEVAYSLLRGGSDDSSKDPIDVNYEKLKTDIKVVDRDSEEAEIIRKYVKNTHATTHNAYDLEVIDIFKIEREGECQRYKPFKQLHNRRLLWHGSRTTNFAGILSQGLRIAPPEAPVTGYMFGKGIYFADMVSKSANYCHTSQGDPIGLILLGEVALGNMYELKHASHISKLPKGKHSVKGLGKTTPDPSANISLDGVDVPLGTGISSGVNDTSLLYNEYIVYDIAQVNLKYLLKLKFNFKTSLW
# [11] = target: RPL13 (human) (UniProt P26373); test: as above
# [12] = target: T1, MOV10 (human) (UniProt Q9HCE1); test: as above
# T1 sequence (looked up): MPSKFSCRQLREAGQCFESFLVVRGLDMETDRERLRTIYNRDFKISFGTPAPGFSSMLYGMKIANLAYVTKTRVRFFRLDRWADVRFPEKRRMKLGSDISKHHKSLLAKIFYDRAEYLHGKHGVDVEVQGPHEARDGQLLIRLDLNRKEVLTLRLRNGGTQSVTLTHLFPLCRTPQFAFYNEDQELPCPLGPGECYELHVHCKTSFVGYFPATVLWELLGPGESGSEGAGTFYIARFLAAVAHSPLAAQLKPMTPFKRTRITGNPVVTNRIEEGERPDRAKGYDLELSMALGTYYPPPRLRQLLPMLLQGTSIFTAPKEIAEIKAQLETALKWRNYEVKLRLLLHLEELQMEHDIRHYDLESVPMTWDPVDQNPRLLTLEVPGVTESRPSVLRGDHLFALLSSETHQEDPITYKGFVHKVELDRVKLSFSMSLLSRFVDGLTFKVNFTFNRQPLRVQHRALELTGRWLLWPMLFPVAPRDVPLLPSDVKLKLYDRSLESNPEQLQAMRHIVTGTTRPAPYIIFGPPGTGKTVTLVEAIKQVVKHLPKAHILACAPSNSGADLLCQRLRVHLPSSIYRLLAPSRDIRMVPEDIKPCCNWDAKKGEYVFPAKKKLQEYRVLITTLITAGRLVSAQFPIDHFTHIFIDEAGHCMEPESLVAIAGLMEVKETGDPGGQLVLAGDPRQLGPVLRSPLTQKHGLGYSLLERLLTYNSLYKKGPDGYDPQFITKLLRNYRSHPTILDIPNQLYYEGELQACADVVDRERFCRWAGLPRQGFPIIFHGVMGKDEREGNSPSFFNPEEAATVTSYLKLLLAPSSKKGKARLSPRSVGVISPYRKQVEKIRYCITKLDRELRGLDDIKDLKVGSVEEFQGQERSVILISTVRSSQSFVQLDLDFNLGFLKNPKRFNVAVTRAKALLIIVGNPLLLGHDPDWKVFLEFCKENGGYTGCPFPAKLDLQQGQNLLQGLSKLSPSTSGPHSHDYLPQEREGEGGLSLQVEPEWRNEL
# [13] = target: T2, SERBP1 (human) (UniProt Q8NC51); test: as above
# T2 sequence (looked up): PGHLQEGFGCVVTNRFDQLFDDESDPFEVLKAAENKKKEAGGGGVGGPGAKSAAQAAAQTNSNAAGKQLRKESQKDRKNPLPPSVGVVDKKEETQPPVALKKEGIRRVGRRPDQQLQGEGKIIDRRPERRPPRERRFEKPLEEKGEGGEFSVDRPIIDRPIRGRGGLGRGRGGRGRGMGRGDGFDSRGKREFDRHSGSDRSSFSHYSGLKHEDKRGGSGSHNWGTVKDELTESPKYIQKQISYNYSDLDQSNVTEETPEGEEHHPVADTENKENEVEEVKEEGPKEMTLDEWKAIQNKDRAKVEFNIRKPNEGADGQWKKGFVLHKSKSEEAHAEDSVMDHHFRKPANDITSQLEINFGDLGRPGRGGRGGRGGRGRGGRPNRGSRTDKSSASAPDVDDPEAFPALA
# [14] = target: ATXN2L (UniProt Q8WWM7); test: co-IP with anti-FLAG, mass spectrometry; C-FLAG B3GNT2
# [15] = target: ATP5F1B (UniProt P06576); test: as above
# Sequence of ATP5F1B (P06576 48-529 limits assumed): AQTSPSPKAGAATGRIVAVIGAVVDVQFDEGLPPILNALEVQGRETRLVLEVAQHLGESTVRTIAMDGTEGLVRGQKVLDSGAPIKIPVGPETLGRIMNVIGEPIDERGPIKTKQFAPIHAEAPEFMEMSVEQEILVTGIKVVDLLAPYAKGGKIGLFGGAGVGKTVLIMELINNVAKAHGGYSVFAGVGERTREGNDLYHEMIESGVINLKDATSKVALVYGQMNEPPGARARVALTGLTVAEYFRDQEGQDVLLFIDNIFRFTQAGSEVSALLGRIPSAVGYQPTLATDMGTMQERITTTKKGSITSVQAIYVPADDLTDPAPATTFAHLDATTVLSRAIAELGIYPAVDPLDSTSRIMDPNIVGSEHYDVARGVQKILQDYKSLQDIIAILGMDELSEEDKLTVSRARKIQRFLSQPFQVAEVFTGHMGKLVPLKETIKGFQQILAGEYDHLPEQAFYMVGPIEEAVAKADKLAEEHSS
# [16] = target: RPL11 (UniProt P62913); test: as above
# [17] = target: TPI1 (UniProt P60174); test: as above
# Sequence of TPI1 (P60174 2-249 limits assumed): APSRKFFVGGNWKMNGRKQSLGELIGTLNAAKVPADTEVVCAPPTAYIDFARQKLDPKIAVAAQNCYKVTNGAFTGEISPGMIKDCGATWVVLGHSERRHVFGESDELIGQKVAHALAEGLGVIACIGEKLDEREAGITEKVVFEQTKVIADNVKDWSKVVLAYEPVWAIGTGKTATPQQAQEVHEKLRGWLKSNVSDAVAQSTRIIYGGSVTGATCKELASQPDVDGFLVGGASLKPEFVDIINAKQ
# [18] = target: UBA52 (UniProt P62987); test: as above
# [19] = target: RPS15A (UniProt P62244); test: as above
# [20] = target: SSR1 (UniProt P43307); test: as above
# Sequence of SSR1 (P43307 19-286 limits assumed): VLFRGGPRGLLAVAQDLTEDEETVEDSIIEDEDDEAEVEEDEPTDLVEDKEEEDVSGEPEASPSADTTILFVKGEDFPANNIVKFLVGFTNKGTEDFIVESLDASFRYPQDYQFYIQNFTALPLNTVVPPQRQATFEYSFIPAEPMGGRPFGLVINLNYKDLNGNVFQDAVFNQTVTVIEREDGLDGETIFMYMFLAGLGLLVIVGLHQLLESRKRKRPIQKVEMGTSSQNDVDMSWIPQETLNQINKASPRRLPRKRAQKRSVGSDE
# [21] = target: FABP5 (UniProt Q01469); test: as above
# Sequence of FABP5 (Q01469 2-135 limits assumed): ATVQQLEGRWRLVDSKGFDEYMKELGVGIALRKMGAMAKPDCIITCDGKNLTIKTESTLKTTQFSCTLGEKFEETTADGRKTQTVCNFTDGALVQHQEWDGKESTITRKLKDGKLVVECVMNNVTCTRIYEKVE
# [22] = target: ACTR3 (UniProt P61158); test: as above
# Sequence of CSE1L (human) (P55060 other isoform, or with tags, fused parts or gaps limits assumed): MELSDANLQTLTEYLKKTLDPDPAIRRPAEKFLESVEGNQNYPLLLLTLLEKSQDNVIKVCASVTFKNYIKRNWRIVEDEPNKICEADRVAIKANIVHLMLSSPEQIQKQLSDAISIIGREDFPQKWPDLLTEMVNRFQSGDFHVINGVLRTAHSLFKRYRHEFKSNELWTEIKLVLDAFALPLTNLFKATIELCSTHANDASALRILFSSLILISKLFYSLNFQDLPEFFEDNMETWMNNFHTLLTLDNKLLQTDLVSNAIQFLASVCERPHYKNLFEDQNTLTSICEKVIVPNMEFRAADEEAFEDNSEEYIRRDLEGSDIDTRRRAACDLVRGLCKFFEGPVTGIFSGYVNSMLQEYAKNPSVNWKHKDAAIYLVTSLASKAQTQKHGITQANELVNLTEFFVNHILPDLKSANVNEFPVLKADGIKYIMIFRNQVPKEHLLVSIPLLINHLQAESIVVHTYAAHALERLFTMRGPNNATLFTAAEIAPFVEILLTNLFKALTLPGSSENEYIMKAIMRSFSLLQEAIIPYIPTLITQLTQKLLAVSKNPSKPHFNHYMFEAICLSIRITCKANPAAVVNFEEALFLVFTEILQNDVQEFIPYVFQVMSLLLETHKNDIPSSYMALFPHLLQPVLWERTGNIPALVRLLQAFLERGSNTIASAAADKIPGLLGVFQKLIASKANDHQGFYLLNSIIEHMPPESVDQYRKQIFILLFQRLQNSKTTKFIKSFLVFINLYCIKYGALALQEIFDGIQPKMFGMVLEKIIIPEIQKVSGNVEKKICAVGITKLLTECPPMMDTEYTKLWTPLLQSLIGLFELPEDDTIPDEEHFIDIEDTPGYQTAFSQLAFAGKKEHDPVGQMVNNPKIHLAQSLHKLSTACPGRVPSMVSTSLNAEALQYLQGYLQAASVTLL
substance,measurement,setting,value
C-terminal FLAG tagged B3GNT2 (from UniProt Q9NY97 1-397) (enzyme),co-IP mass spectrometry count,[1],15
same,co-IP mass spectrometry count,[2],36
same,co-IP mass spectrometry count,[3],3
same,co-IP mass spectrometry count,[4],3
same,co-IP mass spectrometry count,[5],3
same,co-IP mass spectrometry count,[6],24
same,co-IP mass spectrometry count,[7],49
same,co-IP mass spectrometry count,[8],37
same,co-IP mass spectrometry count,[9],3
same,co-IP mass spectrometry count,[10],3
same,co-IP mass spectrometry count,[11],23
same,co-IP mass spectrometry count,[12],3
same,co-IP mass spectrometry count,[13],10
same,co-IP mass spectrometry count,[14],5
same,co-IP mass spectrometry count,[15],4
same,co-IP mass spectrometry count,[16],7
same,co-IP mass spectrometry count,[17],2
same,co-IP mass spectrometry count,[18],20
same,co-IP mass spectrometry count,[19],6
same,co-IP mass spectrometry count,[20],4
same,co-IP mass spectrometry count,[21],8
same,co-IP mass spectrometry count,[22],7
